From US20240091382A1, “MINIMAL BILE ACID INDUCIBLE PROMOTERS FOR GENE THERAPY” (priority 2020, published 2024)

B1: imPr+1xIR: imPr variant with one extra repeat of the murine IR-1 element at the 5′end (SEQ ID NO: 6) (nucleic acid)
DNA: TTAGGCCATTGACCTAGGTTCCTGCTTTGAGTATGTTCGACCTTTCCTCTCATGTCACTGAACTGTGCTAGATCTGGACTTTAGGCCATTGACCTATAAGCAAATAGATAGTGTTCTTAAAAAAGCCTGATTTCTGTTCAATGCTTTATTACCATGAAAACTGAACTTGGAAAGGGGTGTACAACCCTGACTTTCCACAGTGGCGTCTCTCGCTTCTCCTGGCTCCCTCAAATTCACA
modifications: Synthetic imPR+1xIR
B2: imPr+3xIR: imPr variant with three extra repeats of the murine IR-1 element (SEQ ID NO: 7) (nucleic acid)
DNA: TTAGGCCATTGACCTATTAGGCCATTGACCTATTAGGCCATTGACCTAGGTTCCTGCTTTGAGTATGTTCGACCTTTCCTCTCATGTCACTGAACTGTGCTAGATCTGGACTTTAGGCCATTGACCTATAAGCAAATAGATAGTGTTCTTAAAAAAGCCTGATTTCTGTTCAATGCTTTATTACCATGAAAACTGAACTTGGAAAGGGGTGTACAACCCTGACTTTCCACAGTGGCGTCTCTCGCTTCTCCTGGCTCCCTCAAATTCACA
modifications: Synthetic imPR+3xIR
B3: imPr+LRH-1: slightly longer imPr variant including the upstream LRH-1 element (SEQ ID NO: 21) (nucleic acid)
DNA: TTTCTAAAGCTTGTTGATACCCTCAGAAGGTCCCCACGCACTCTGGGTTTGGGTTCCTGCTTTGAGTATGTTCGACCTTTCCTCTCATGTCACTGAACTGTGCTAGATCTGGACTTTAGGCCATTGACCTATAAGCAAATAGATAGTGTTCTTAAAAAAGCCTGATTTCTGTTCAATGCTTTATTACCATGAAAACTGAACTTGGAAAGGGGTGTACAACCCTGACTTTCCACAGTGGCGTCTCTCGCTTCTCCTGGCTCCCTCAAATTCACA
modifications: Synthetic imPr+ LRH-1
B4: imPr+5xIR: imPr variant with five extra repeats of the murine IR-1 element (SEQ ID NO: 19) (nucleic acid)
DNA: TTAGGCCATTGACCTATTAGGCCATTGACCTATTAGGCCATTGACCTATTAGGCCATTGACCTATTAGGCCATTGACCTAGGTTCCTGCTTTGAGTATGTTCGACCTTTCCTCTCATGTCACTGAACTGTGCTAGATCTGGACTTTAGGCCATTGACCTATAAGCAAATAGATAGTGTTCTTAAAAAAGCCTGATTTCTGTTCAATGCTTTATTACCATGAAAACTGAACTTGGAAAGGGGTGTACAACCCTGACTTTCCACAGTGGCGTCTCTCGCTTCTCCTGGCTCCCTCAAATTCACA
modifications: Synthetic imPR+5xIR
B5: imPr+3xIR-ER2: imPr variant with three repetitions of the IR-1-ER2 element (SEQ ID NO: 20) (nucleic acid)
DNA: TGGACTTTAGGCCATTGACCTATGGACTTTAGGCCATTGACCTATGGACTTTAGGCCATTGACCTAGGTTCCTGCTTTGAGTATGTTCGACCTTTCCTCTCATGTCACTGAACTGTGCTAGATCTGGACTTTAGGCCATTGACCTATAAGCAAATAGATAGTGTTCTTAAAAAAGCCTGATTTCTGTTCAATGCTTTATTACCATGAAAACTGAACTTGGAAAGGGGTGTACAACCCTGACTTTCCACAGTGGCGTCTCTCGCTTCTCCTGGCTCCCTCAAATTCACA
modifications: Synthetic imPr+3xIR-ER2

Each molecule was assayed on Huh-7 cells (assay: Luciferase expression from BSEP-derived promoter plasmids in Huh-7 cells (FXR co-transfection, CDCA induction)). Conditions: Huh-7, pCMV-hFXRα2, 30 μM CDCA.
Format: cell-based, human
Protocol: FIG. 2. […] In all cases, cells were also transfected with a Renilla expressing plasmid (pRL-CMV). Luciferase and Renilla expression were measured with a luminometer. All samples were tested in triplicates and data are presented as mean±SEM of relative (rel.) units (Luciferase units sec^−1/Renilla units sec^−1). The fold induction of each condition relative to cells transfected only with the luciferase plasmid (Luc plasmid) is indicated on top of each column. The statistical comparison between these two conditions was performed by using an unpaired […] T test. *, p<0.05; **, p<0.01; ***, p<0.001. imPr and ihPr, pAAV-imPr-LucPEST and pAAV-ihPr-LucPEST, respectively; full length mPr, pAAV-mBSEPpr-LucPEST; full length hPr, p-2563/+4-Luc; A1AT, pAAV-A1AT-LucPEST.
FIG. 18. […] In all cases, cells were also transfected with the same amount of Renilla expressing plasmid (pRL-CMV) to determine the transfection efficiency. Luciferase and Renilla expression were measured with a luminometer. All samples were tested in triplicates and data are presented as mean±SEM of relative (rel.) units (Luciferase units sec^−1/Renilla units sec^−1). The fold induction of each condition relative to cells transfected only with the luciferase plasmid (Luc plasmid) is indicated on top of each column. The statistical comparison between these two conditions was performed by using an unpaired T test. *, p<0.05; **, p<0.01; ***, p<0.001; ****, p<0.0001.
The inventors first tested whether luciferase expression could be induced by bile salts in hepatic cells from human (Huh-7 and HepG2) and mouse origin (Hepa1-6). For this purpose, they transfected confluent monolayers of these cells in 12-well plates with 0.5 μg pAAV-miPr-LucPEST or pAAV-hiPr-LucPEST plasmids, or with the same amount of control plasmids (pAAV-mBSEPpr-LucPEST, p-2563/+4-Luc and pAAV-A1AT-LucPEST), together with 0.5 μg of plasmids expressing either human FXRα1 (pcDNA3.1-hFXRα1, ordered from GenScript) or FXRα2 (pCMV-hFXRα2, ref NR1H4 cDNA Resource Center, Bloomsburg, PA), two isoforms of FXR that can exert different transcriptional regulation). […] Furthermore, to normalize luciferase expression, and correct for differences in transfection efficiencies, the inventors also co-transfected cells with 0.2 μg of a plasmid expressing Renilla-luciferase from a constitutive promoter (pRL-CMV, Promega). All transfections were performed using lipofectamine 2000 (Thermo Fisher). […] After induction, cells were collected and luciferase and Renilla expression were measured in cell extracts using an Orion L Microplate Luminometer.
The inventors tested luciferase expression of plasmids containing the variants of imPr promoter in Huh-7 cells as described above. Briefly, the inventors transfected confluent cell monolayers in 12-well plates with 0.5 μg of each of the corresponding plasmids, using as control pAAV-miPr-LucPEST, together with 0.5 μg of pCMV-hFXRa2 using lipofectamine 2000. To normalize luciferase expression, the inventors co-transfected cells with 0.2 μg of a plasmid expressing Renilla-luciferase from a constitutive promoter (pRL-CMV). […] After induction, cells were collected and luciferase and Renilla expression were measured in cell extracts as described.

Molecule	level of luciferase expression compared to plasmid containing imPr promoter	luciferase expression compared to imPr+1xIR
B1	significantly higher level of luciferase expression	
B2	significantly higher level of luciferase expression	significantly higher luciferase expression than imPr+1xIR
B3	not observed	
B4	not observed	
B5	not observed	
